# Source: PMC3923783, “Competitive and Cooperative Interactions Mediate RNA Transfer from Herpesvirus Saimiri ORF57 to the Mammalian Export Adaptor ALYREF”
# Assays:
# [1] = target: ORF57 8-120;ALYREF 1-155 (REF2-I) (Herpesvirus saimiri;mouse, UniProt P13199;Q9JJW6 8-120;1-155, |); experiment: intrinsic Trp fluorescence titration; RNA into preformed 1:1 ORF57-ALYREF complex, 10 uM; apparent macroscopic Kd; Fluorescence: 20 mM phosphate pH 6.2, 50 mM NaCl, 50 mM L-Arg+L-Glu, 5 mM EDTA, 1 mM TCEP (temperature not stated); NMR: 20 mM phosphate pH 6.2, 50 mM NaCl, 50; conditions: protein: recombinant;recombinant; tags: ;; copies: 1;1
# ORF57 8-120 [2] = target: T1, ORF57 8-120 (Herpesvirus saimiri, UniProt P13199 8-120); experiment: intrinsic Trp fluorescence titration; Fluorescence: 20 mM phosphate pH 6.2, 50 mM NaCl, 50 mM L-Arg+L-Glu, 5 mM EDTA, 1 mM TCEP (temperature not stated); NMR: 20 mM phosphate pH 6.2, 50 mM NaCl, 50; conditions: protein: recombinant
# ORF57 8-120 [3] = target: T1, ORF57 8-120; experiment: NMR (HSQC titration, saturation transfer); aa64-120 broadened beyond detection at 1:1; Fluorescence: 20 mM phosphate pH 6.2, 50 mM NaCl, 50 mM L-Arg+L-Glu, 5 mM EDTA, 1 mM TCEP (temperature not stated); NMR: 20 mM phosphate pH 6.2, 50 mM NaCl, 50; conditions: protein: recombinant
# His-ORF57 8-120 WT = His-ORF57 8-120 WT (Herpesvirus saimiri, UniProt P13199 8-120); experiment: UV cross-linking; Fluorescence: 20 mM phosphate pH 6.2, 50 mM NaCl, 50 mM L-Arg+L-Glu, 5 mM EDTA, 1 mM TCEP (temperature not stated); NMR: 20 mM phosphate pH 6.2, 50 mM NaCl, 50; conditions: protein: recombinant; tags: His6; label: radioactive end label
# Sequence of His-ORF57 8-120 WT (P13199 8-120): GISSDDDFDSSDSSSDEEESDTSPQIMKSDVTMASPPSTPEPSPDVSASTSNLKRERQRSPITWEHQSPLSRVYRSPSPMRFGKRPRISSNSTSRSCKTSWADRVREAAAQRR
# T1 sequence (P13199 8-120): as above
# Sequence of ORF57 8-120;ALYREF 1-155 (REF2-I) (P13199 8-120, chain 1 of 2): as the sequence (P13199 8-120) above
# Sequence of ORF57 8-120;ALYREF 1-155 (REF2-I) (Q9JJW6 1-155, chain 2 of 2): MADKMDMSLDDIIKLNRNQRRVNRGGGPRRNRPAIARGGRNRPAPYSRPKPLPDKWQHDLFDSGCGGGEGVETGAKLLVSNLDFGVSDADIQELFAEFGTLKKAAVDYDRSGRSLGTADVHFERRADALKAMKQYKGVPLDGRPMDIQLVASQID
binder,measurement,setting,value
CAGUCGCGAAGAGG (ssRNA) [14merS],Kd,[1],1.55 ± 0.24 µM
same,Kd,ORF57 8-120 [2],7.57 ± 0.06 µM
CAGUCGC (ssRNA) [7merN],Kd,ORF57 8-120 [2],38.8 ± 0.6 µM
GAAGAGG (ssRNA) [7merS],binding result,ORF57 8-120 [3],binds
GAAGAGG (ssRNA) [7merS end-labeled],binding result,His-ORF57 8-120 WT,binds
